Measurements published in patent US20050228169A1 (published 2005).

Molecular target: T1, GST-syntaxin-1a (1-266AA) (human, UniProt P08515 1-218 = GST; Q16623 1-266)
T1 construct: Expressed in E. coli DH5a and purified on glutathione-Sepharose; also called GST-syntaxin-1a fused protein; syntaxin-1a-GST
Assay: GST pull-down: GST-syntaxin-1a (17 µg) on glutathione-Sepharose, 16 hours at 4° C.; Western blot with anti-penta His antibody
Method: KIAA1006 polypeptide (the histidine-tagged KIAA1006 polypeptide described above) and its C-terminal truncated product (the histidine-tagged C-terminal truncation product of KIAA1006 polypeptide described above) purified with a cobalt resin were respectively mixed with glutathione-Sepharose (bed volume 10 μl) to which GST (17 μg) was bound, stirred for 6 hours at 4° C., and then centrifuged. The obtained supernatants (GST-glutathione-Sepharose unadsorbed fractions) were respectively added to glutathione-Sepharose (bed volume 10 μl) to which GST-syntaxin-1a (17 μg) was bound, and after stirring for 16 hours at 4° C., the resultants were subjected to centrifugation. The fractions adsorbed to GST-glutathione-Sepharose and the fractions adsorbed to GST-syntaxin-1a-glutathione-Sepharose were eluted with SDS-PAGE sample buffer, respectively, and the binding of syntaxin-1a to KIAA1006 polypeptide or to its C-terminal truncation product was analyzed by Western blotting using anti-penta His antibody (Qiagen).
For the SDS-PAGE, 4-12% Bis-Tris Gel (NOVEX) was used. The detection of a secondary antibody that was labeled with horseradish peroxidase was carried out using ECL Western blotting detection reagents (Amersham Pharmacia Biotech).

T1 sequence (P08515 1-218, tags or fused parts left off): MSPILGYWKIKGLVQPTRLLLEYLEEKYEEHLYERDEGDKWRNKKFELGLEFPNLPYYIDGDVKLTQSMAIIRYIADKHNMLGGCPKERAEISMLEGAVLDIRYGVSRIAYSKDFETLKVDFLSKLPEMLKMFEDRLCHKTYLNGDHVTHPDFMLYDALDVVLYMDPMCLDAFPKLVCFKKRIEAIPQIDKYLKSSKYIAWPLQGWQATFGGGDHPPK

B1: histidine-tagged KIAA1006 C-terminal truncated polypeptide (1-1157AA) (other)
chain: HHHHHHMKKFNFRKVLDGLTASSPGSGSSSGSNSGGGAGSGSVHPAGTAGVLREEIQETLTSEYFQICKTVRHGFPHQPTALAFDPVQKILAIGTRTGAIRILGRPGVDCYCQHESGAAVLQLQFLINEGALVSASSDDTLHLWNLRQKRPAILHSLKFNRERITYCHLPFQSKWLYVGTERGNTHIVNIESFILSGYVIMWNKAIELSTKTHPGPVVHLSDSPRDEGKLLIGYENGTVVFWDLKSKRAELRVYYDEAIHSIDWHHEGKQFMCSHSDGSLTLWNLKSPSRPFQTTIPHGKSQREGRKSESCKPILKVEYKTCKNSEPFIIFSGGLSYDKACRRPSLTIMHGKAITVLEMDHPIVEFLTLCETPYPNEFQEPYAVVVLLEKDLIVVDLTQSNFPIFENPYPMDIHESPVTCTAYFADCPPDLILVLYSIGVKHKKQGYSNKEWPISGGAWNLGAQTYPEIIITGHADGSIKFWDASAITLQMLYKLKTSKVFEKQKVGEGKQTCEIVEEDPFAIQMIYWCPESRIFCVSGVSAYVIIYKFSRHEITTEIVSLEVRLQYDVEDIITPEPETSPPFPDLSAQLPSSRSLSGSTNTVASEGVTKDSIPCLNVKTRPVRMPPGYQAELVIQLVWVDGEPPQQITSLAVSSAYGIVAFGNCNGLAVVDFIQKTVLLSMGTIDLYRSSDLYQRQPRSPRKNKQFIADNFCMRGLSNFYPDLTKRIRTSYQSLTELNDSPVPLELERCKSPTSDHVNGHCTSPTSQSCSSGKRLSSADVSKVNRWGPGRPPFRKAQSAACMEISLPVTTEENRENSYNRSRSSSISSIDKDSKEAITALYFMDSFARKNDSTISPCLFVGTSLGMVLIISLNLPLADEQRFTEPVMVLPSGTFLSLKGAVLTFSCMDRMGGLMQPPYEVWRDPNNIDENEKSWRRKVVMNSSSASQEIGDHQYTIICSEKQAKVFSLPSQTCLYVHNITETSFILQANVVVMCSSACLACFCANGHIMIMSLPSLRPMLDVNYLPLTDMRIARTFCFTNEGQALYLVSPTEIQRLTYSQEMCDNLQDMLGDLFTPIETPEAQNRGFLKGLFGGSGQTFDREELFGEASAGKASRSLAQHIPGPGSIEGMKGAAGGVMGELTRARIALDERGQRLGELEEKT
notes: Expressed in sf9 insect cells by baculovirus and purified on cobalt resin; The junction of the tag is as noted for m1; also called C-terminal truncated product; C-terminal truncation product of KIAA1006 polypeptide
binding result: no binding
